B1: VET118 VET218 anti-canine lymphoma antibody variant (mab 231 variable domains with canine FR4) (antibody)
light: DIQMNQSPSSLSASLGDTITITCHASQNINVWLSWYQQKPGNIPKLLIYKASNLHTGVPSRFSGSGSGTGFTLTISSLQPEDIATYYCQQGQSYPLTFGGGTHLTVLGQPKASPSVTLFPPSSEELGANKATLVCLISDFYPSGVTVAWKADGSPITQGVETTKPSKQSNNKYAASSYLSLTPDKWKSHSSFSCLVTHEGSTVEKKVAPAECS
heavy: EVKLVESGGGLVQPGGSLKLSCATSGFTFSDYYMYWVRQTPEKRLEWVAYISNGGGSTYYPDTVKGRFTISRDNAKNTLYLQMSRLKSEDTAMYYCARHGGYYAMDYWGQGTSVTVSSASTTAPSVFPLAPSCGSTSGSTVALACLVSGYFPEPVTVSWNSGSLTSGVHTFPSVLQSSGLYSLSSMVTVPSSRWPSETFTCNVAHPASKTKVDKPVPKRENGRVPRPPDCPKCPAPEMLGGPSVFIFPPKPKDTLLIARTPEVTCVVVDLDPEDPEVQISWFVDGKQMQTAKTQPREEQFNGTYRVVSVLPIGHQDWLKGKQFTCKVNNKALPSPIERTISKARGQAHQPSVYVLPPSREELSKNTVSLTCLIKDFFPPDIDVEWQSNGQQEPESKYRTTPPQLDEDGSYFLYSKLSVDKSRWQRGDTFICAVMHEALHNHYTQKSLSHSPGK
B2: murine anti-canine lymphoma monoclonal antibody mab 231 (ATCC HB-9401) (antibody, V domains shown)
VH: EVKLVESGGGLVQPGGSLKLSCATSGFTFSDYYMYWVRQTPEKRLEWVAYISNGGGSTYYPDTVKGRFTISRDNAKNTLYLQMSRLKSEDTAMYYCARHGGYYAMDYWGQGTSVTVSS
VL: DIQMNQSPSSLSASLGDTITITCHASQNINVWLSWYQQKPGNIPKLLIYKASNLHTGVPSRFSGSGSGTGFTLTISSLQPEDIATYYCQQGQSYPLTFGGGTKLEIK

Tests used:
[1] = biological target: target antigen of mab 231 on canine lymphoma cells (canine); experiment: FACS on canine lymphoma cells positive for the mab 231 antigen, FITC anti-dog IgG secondary
[2] = biological target: target antigen of mab 231 on canine lymphoma cells (canine); experiment: FACS on canine lymphoma cells positive for the mab 231 antigen, anti-mouse IgG secondary

Binder | Binding (%) [1] [%] | Binding (%) [2] [%]
B1 | 27.2 | –
B2 | – | 74.2
